In US20220235143A1 (Memorial Sloan Kettering, published 2022):
Where no end group is shown, it is not given here.

T1: MUC16 peptide-2 glycopeptide (human, also: glycopeptide, glycan and its site not given here)
T1 peptide: TLDRSSVLVDGYSPNRNE

T2: MUC16 c114 expressed on transfected SKOV3 cells (SKOV3^c114) (human)
T2 construct: also called deltaMUC16c114; c114 peptide
T2 chain: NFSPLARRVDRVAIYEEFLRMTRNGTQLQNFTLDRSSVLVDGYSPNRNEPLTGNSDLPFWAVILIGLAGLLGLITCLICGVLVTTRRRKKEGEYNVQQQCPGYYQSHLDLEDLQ

T3: biotinylated MUC16 peptide-2 (human, also: biotinylated (position not given here))
T3 construct: Captured on streptavidin sensor (SPR) or streptavidin magnetic beads (radioligand assays); also called biotinylated peptide-2
T3 peptide: TLDRSSVLVDGYSPNRNE


How the values were obtained:
[1] = target: T1, MUC16 peptide-2 glycopeptide; assay: SPR, BIAcore X100, peptide-2 glycopeptide over antibody captured by anti-IgG
Procedure: Ligand capture was performed by flowing the humanized anti-Muc16 antibodies 18C6 H1L1, 18C6 H1L2, 18C6 H2L1, 18C6 H2L2) and the parental 18C6 mouse antibody onto the respective chips under saturating conditions. The MUC16 peptide-2 was then flowed over at the various test concentrations (150 nM, 75 nM, 37.5 nM, 18.8 nM, and 9.4 nM). The assay conditions used for measuring the effects of the glycopeptide were as follows: association time of 2 minutes, disassociation time of 10 min, and a flow rate of 30 μl per minute.

[2] = target: T2, MUC16 c114 expressed on transfected …; assay: flow cytometry, PE-Texas Red axis 10^0 to 10^5, secondary antibody detection; untransfected SKOV3 Cells + DFO-hu4H11 + Sec Ab lie with their controls below about 5 x 10^2
[3] = target: T3, biotinylated MUC16 peptide-2; assay: SPR, BIAcore X100, single cycle kinetics, antibody over captured biotinylated peptide-2
Procedure: The relative binding affinities of 4H11 humanized antibodies (H1L1, H1L2, H2L1, H2L2) were compared by surface plasmon resonance using a BIACore-X100 instrument with a Biotin CAP Chip (GE Healthcare). The assay format consisted of capturing the biotinylated MUC16 peptide-2 ([…]; SEQ ID NO: 52) onto a streptavidin coated sensor and flowing over the antibody at various concentrations using single cycle kinetics. Ligand capture was performed by flowing 0.5 μg/ml of biotinylated MUC16 peptide-2 at a rate of 5 μl per minute for 65 seconds. The 4H11 humanized antibodies were then flowed over at the various test concentrations (150 nM, 75 nM, 37.5 nM, 18.8 nM, and 9.4 nM). The assay conditions used for measuring the effects of the added antibodies were as follows: association time of 2 minutes, disassociation time of 10 min, and a flow rate of 30 μl per minute.

[4] = target: T2, MUC16 c114 expressed on transfected …; assay: FACS, geometric mean PE fluorescence, SKOV3 c114 transfectant cells, mouse anti-human IgG1-Fc-PE detection; same antibody on vector control SKOV3 phrGFP about 200, secondary alone about 170
Procedure: (§1) In a separate experiment, full-length humanized 4H11 antibodies (IgG1-Fc) comprising different combinations of humanized heavy and light chain variable regions of the 4H11 antibody were assayed. An anti-human IgG1-Fc-PE antibody was employed for fluorescent staining of MUC16-positive OVCAR3 or SKOV3 transfectant cells expressing MUC16 peptides. FIGS. 10A and 10B provide data for mean PE fluorescence and percentage PE positive cells for the 4H11 H1L1, H1L2, H2L1 and H2L2 antibodies assayed.

[5] = target: T2, MUC16 c114 expressed on transfected …; assay: FACS, geometric mean PE fluorescence, SKOV3 c114 transfectant cells, mouse anti-human IgG1-Fc-PE detection; same antibody on vector control SKOV3 phrGFP about 170, at the level of secondary alone (about 170)
Procedure: as §1

Row | Binder | Kd [1] [nM] | koff [1] [s⁻¹] | kon [1] [M⁻¹ s⁻¹] | Kd [3] [nM] | koff [3] [s⁻¹] | kon [3] [M⁻¹ s⁻¹] | also measured
1 | 18C6 H1L1 humanized antibody (antibody, human IgG1, kappa, V domains shown, also called H1L1 humanized 18C6 antibody) VH: QVTLKESGPGILQPTQTLTLTCTFSGFSLSTVGMGVGWSRQPSGKGLEWLAHIWWDDEDKYYNPALKSRLTITKDTSKNQVFLKITNVDTADTATYYCTRIGTAQATDALDYWGQGTLVTVSS VL: DIVMTQSAPSVPVTPGESVSISCRSSKSLLHSNGNTYLYWFLQKPGQSPQRLIYYMSNLASGVPDRFSGRGSGTDFTLKISRVEAEDVGVYYCMQSLEYPLTFGGGTKLEIKR | 6.7 | 0.0019 | 287000 | – | – | – | –
2 | 18C6 H1L2 humanized antibody (antibody, human IgG1, kappa, V domains shown) VH: QVTLKESGPGILQPTQTLTLTCTFSGFSLSTVGMGVGWSRQPSGKGLEWLAHIWWDDEDKYYNPALKSRLTITKDTSKNQVFLKITNVDTADTATYYCTRIGTAQATDALDYWGQGTLVTVSS VL: DIVMTQSALSLPVTPGEPVSISCRSSKSLLHSNGNTYLYWFLQKPGQSPQRLIYYMSNLASGVPDRFSGSGSGTDFTLKISRVEAEDVGVYYCMQSLEYPLTFGGGTKLEIKR | 8.7 | 0.0025 | 287000 | – | – | – | –
3 | 18C6 H2L1 humanized antibody (antibody, human IgG1, kappa, V domains shown) VH: QVTLKESGPTLVKPTQTLTLTCTFSGFSLSTVGMGVGWSRQPSGKGLEWLAHIWWDDEDKYYNPALKSRLTITKDTSKNQVVLTITNVDPVDTATYYCTRIGTAQATDALDYWGQGTLVTVSS VL: DIVMTQSAPSVPVTPGESVSISCRSSKSLLHSNGNTYLYWFLQKPGQSPQRLIYYMSNLASGVPDRFSGRGSGTDFTLKISRVEAEDVGVYYCMQSLEYPLTFGGGTKLEIKR | 9.9 | 0.0054 | 549000 | – | – | – | –
4 | 18C6 H2L2 humanized antibody (antibody, human IgG1, kappa, V domains shown) VH: QVTLKESGPTLVKPTQTLTLTCTFSGFSLSTVGMGVGWSRQPSGKGLEWLAHIWWDDEDKYYNPALKSRLTITKDTSKNQVVLTITNVDPVDTATYYCTRIGTAQATDALDYWGQGTLVTVSS VL: DIVMTQSALSLPVTPGEPVSISCRSSKSLLHSNGNTYLYWFLQKPGQSPQRLIYYMSNLASGVPDRFSGSGSGTDFTLKISRVEAEDVGVYYCMQSLEYPLTFGGGTKLEIKR | 9.2 | 0.004 | 433000 | – | – | – | –
5 | humanized variant of 4H11 (hu4H11), DFO immunoconjugate (antibody, V domains shown, p-SCN-Bn-DFO on lysine epsilon-amines, ~1 DFO conjugated per antibody; 89Zr-labelled where named [^89Zr]Zr-DFO-hu4H11, both entries are variable regions (H1 and L1); Full-length antibody; also called DFO-hu4H11; [^89Zr]Zr-DFO-hu4H11) VH: EVKLQESGGGFVKPGGSLRVSCAASGFTFSSYAMSWVRLAPEMRLEWVATISSAGGYIFYSDSVQGRFTISRDNAKNSLHLQMGSLRSGDTAMYYCARQGFGNYGDYYAMDYWGQGTTVTVSS VL: DIELTQSPSSLAVSAGERVTMNCKSSQSLLNSRTRKNQLAWYQQKPGQSPELLIYWASTRQSGVPDRFSGSGSGTDFTLTISSVQAEDVAVYYCQQSYNLLTFGPGTKLEIKR | – | – | – | – | – | – | binding result [2]: binds
6 | 4H11-H1L1 hIgG (antibody, also called humanized 4H11 H1L1) heavy: not shown light: DIELTQSPSSLAVSAGERVTMNCKSSQSLLNSRTRKNQLAWYQQKPGQSPELLIYWASTRQSGVPDRFSGSGSGTDFTLTISSVQAEDVAVYYCQQSYNLLTFGPGTKLEIKRTVAAPSVFIFPPSDEQLKSGTASVVCLLNNFYPREAKVQWKVDNALQSGNSQESVTEQDSKDSTYSLSSTLTLSKADYEKHKVYACEVTHQGLSSPVTKSFNRGEC | – | – | – | 1.57 | 0.000146 | 92700 | –
7 | 4H11-H1L2 hIgG (antibody, also called H1L2 humanized 4H11 antibody) heavy: not shown light: DIVLTQSPDSLAVSLGERVTMNCKSSQSLLNSRTRKNQLAWYQQKPGQSPELLIYWASTRQSGVPDRFSGSGSGTDFTLTISSVQAEDVAVYYCQQSYNLLTFGQGTKLEIKRTVAAPSVFIFPPSDEQLKSGTASVVCLLNNFYPREAKVQWKVDNALQSGNSQESVTEQDSKDSTYSLSSTLTLSKADYEKHKVYACEVTHQGLSSPVTKSFNRGEC | – | – | – | 2.19 | 0.000198 | 90400 | –
8 | 4H11-H2L1 hIgG (antibody) heavy: not shown light: DIELTQSPSSLAVSAGERVTMNCKSSQSLLNSRTRKNQLAWYQQKPGQSPELLIYWASTRQSGVPDRFSGSGSGTDFTLTISSVQAEDVAVYYCQQSYNLLTFGPGTKLEIKRTVAAPSVFIFPPSDEQLKSGTASVVCLLNNFYPREAKVQWKVDNALQSGNSQESVTEQDSKDSTYSLSSTLTLSKADYEKHKVYACEVTHQGLSSPVTKSFNRGEC | – | – | – | 1.33 | 0.000101 | 76100 | binding result [4]: binds
9 | 4H11-H2L2 hIgG (antibody) heavy: not shown light: DIVLTQSPDSLAVSLGERVTMNCKSSQSLLNSRTRKNQLAWYQQKPGQSPELLIYWASTRQSGVPDRFSGSGSGTDFTLTISSVQAEDVAVYYCQQSYNLLTFGQGTKLEIKRTVAAPSVFIFPPSDEQLKSGTASVVCLLNNFYPREAKVQWKVDNALQSGNSQESVTEQDSKDSTYSLSSTLTLSKADYEKHKVYACEVTHQGLSSPVTKSFNRGEC | – | – | – | 2.37 | 0.000175 | 73800 | binding result [5]: binds
